For experiment [1], the target named is T1, recombinant human FcRn (human, UniProt P55899 24-297; P61769 21-119, limits assumed).
T1 construct: a beta-2-microglobulin chain is not mentioned; also called human recombinant FcRn
Nature of the experiment: ELISA; recombinant human FcRn coated, serially diluted test article, anti-human (H+L)-HRP, 4PL fit. The method, then:
(§1) Graph is a result of one experiment. Experiment was performed in duplicate. Error bars represent standard deviation of the mean values.
Signal was developed using TMB substrate then quenched prior to reading absorbance at 450-650 nm on a SpectraMax plate reader.
In general terms: ELISA stands for enzyme-linked immunosorbent assay.

Experiment [2] has as its target T1, recombinant human FcRn. Nature of the experiment: FcRn ELISA.
Experiment [3] addresses T2, his-tagged recombinant human Flt3 receptor (Sino Biologicals) (human, UniProt P36888 27-541, limits assumed).
T2 construct: Bought protein; also called human recombinant FLT3; not shown: His tag
T2 sequence (looked up): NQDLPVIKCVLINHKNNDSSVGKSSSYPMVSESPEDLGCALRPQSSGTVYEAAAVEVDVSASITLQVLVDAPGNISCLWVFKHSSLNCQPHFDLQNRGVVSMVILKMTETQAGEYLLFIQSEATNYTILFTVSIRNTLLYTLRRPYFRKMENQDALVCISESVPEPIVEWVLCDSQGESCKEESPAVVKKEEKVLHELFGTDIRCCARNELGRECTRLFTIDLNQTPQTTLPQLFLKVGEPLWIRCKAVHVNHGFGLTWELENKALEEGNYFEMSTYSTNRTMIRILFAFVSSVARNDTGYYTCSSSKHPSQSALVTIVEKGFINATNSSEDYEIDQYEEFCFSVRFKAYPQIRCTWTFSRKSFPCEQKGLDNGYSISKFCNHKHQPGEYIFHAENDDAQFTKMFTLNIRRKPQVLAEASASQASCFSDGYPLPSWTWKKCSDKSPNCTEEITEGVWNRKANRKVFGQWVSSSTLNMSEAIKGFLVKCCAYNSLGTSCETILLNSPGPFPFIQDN
In words: ELISA; His-tagged recombinant human Flt3 on nickel plate, serially diluted Flt3L-Fc, anti-human (H+L)-HRP, 4PL fit. The method, then: as §1
Signal was developed using TMB substrate then quenched prior to reading absorbance at 450 nm on a SpectraMax plate reader.

The target of experiment [4] is T3, recombinant human C1q protein (Fitzgerald) (human, UniProt P02745 23-245; P02746 28-253; P02747 29-245, limits assumed).
T3 construct: also called human recombinant complement protein, C1q
In words: ELISA, test article immobilized, C1q added; text: devoid of C1q binding ability.

The target of experiment [5] is T4, human FLT3 on the AML5 cell line (human, UniProt P36888 27-993).
T4 sequence (looked up): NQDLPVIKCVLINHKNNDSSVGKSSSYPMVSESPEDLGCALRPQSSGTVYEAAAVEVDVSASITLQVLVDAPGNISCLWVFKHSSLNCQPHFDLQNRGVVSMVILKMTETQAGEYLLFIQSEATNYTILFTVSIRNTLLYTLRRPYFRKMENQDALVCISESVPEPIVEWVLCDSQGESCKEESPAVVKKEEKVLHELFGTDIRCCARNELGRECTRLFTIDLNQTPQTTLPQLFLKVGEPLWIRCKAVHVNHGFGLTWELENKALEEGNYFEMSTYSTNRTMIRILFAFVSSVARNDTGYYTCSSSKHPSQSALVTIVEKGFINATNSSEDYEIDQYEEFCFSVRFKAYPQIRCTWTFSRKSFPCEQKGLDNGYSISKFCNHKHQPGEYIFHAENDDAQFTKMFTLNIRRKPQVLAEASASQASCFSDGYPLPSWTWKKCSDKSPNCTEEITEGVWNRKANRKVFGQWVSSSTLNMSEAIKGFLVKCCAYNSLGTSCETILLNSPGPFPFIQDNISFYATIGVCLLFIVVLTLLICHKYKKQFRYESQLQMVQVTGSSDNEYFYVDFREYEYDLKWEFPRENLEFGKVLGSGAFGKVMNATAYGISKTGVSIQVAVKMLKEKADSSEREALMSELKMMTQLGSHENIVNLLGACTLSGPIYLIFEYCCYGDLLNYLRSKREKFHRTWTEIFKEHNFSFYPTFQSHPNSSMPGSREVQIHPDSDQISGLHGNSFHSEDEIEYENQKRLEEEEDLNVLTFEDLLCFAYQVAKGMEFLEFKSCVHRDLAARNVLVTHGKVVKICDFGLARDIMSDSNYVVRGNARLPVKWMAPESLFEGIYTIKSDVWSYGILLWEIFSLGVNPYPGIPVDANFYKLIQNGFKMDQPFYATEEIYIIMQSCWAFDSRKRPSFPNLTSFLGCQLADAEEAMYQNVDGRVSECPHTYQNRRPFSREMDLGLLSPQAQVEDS
In words: cell-based or functional assay.

T1 sequence (P55899 24-297 limits assumed, chain 1 of 2): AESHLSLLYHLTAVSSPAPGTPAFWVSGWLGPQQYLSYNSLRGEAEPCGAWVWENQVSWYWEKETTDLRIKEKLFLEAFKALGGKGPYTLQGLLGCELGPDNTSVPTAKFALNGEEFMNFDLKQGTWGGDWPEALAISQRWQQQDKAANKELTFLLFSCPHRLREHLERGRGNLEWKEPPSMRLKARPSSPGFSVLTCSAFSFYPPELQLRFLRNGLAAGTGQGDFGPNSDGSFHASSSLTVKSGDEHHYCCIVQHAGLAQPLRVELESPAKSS
T1 sequence (P61769 21-119 limits assumed, chain 2 of 2): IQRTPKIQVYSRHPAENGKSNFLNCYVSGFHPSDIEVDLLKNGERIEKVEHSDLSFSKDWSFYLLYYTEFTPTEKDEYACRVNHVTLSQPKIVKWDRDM
T3 sequence (P02745 23-245 limits assumed, chain 1 of 3): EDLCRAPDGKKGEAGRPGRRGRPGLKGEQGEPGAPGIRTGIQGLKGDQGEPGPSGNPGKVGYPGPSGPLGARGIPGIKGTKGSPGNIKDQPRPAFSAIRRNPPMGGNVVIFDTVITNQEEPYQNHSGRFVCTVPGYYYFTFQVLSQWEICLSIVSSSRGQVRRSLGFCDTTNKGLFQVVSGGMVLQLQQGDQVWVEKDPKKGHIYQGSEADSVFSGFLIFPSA
T3 sequence (P02746 28-253 limits assumed, chain 2 of 3): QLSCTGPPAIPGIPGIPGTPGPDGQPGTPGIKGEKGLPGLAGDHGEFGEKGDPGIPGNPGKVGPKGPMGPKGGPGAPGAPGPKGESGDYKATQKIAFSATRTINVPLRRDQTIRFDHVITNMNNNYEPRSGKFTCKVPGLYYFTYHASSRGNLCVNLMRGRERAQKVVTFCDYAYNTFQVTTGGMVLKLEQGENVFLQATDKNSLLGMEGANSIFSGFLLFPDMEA
T3 sequence (P02747 29-245 limits assumed, chain 3 of 3): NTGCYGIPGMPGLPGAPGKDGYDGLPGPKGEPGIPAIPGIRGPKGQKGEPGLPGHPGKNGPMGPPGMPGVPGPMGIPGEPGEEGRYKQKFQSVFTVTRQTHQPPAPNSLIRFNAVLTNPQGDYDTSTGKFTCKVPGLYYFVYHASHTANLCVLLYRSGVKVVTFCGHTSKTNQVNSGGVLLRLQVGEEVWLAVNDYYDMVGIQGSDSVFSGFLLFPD

B1: human FLT3-ligand human hingeless IgG1 (M252Y/S254T/T256E) fusion protein (SEQ ID NO:9) (Fc fusion)
chain: TQDCSFQHSPISSDFAVKIRELSDYLLQDYPVTVASNLQDEELCGGLWRLVLAQRWMERLKTVAGSKMQGLLERVNTEIHFVTKCAFQPPPSCLRFVQTNISRLLQETSEQLVALKPWITRQNFSRCLELQCQPDSSTLPPPWSPRPLEATAPTAPQGGPSVFLFPPKPKDTLYITREPEVTCVVVDVSHEDPEVKFNWYVDGVEVHNAKTKPREEQYNSTYRVVSVLTVLHQDWLNGKEYKCKVSNKALPAPIEKTISKAKGQPREPQVYTLPPSREEMTKNQVSLTCLVKGFYPSDIAVEWESNGQPENNYKTTPPVLDSDGSFFLYSKLTVDKSRWQQGNVFSCSVMHEALHNHYTQKSLSLSPGK
notes: also called FLT3L ECD-hingeless hG1 (M252Y/S254T/T256E)
The term EC50 denotes the concentration needed to bring the measured effect to its halfway point. B1: the figures for the EC50 (with recombinant human FcRn [1]; in experiment [3]) were 61 nM and 0.88 nM, respectively. For the same molecule, the “fold increase in FcRn binding against SEQ ID NO:1” value with recombinant human FcRn [2] was 38 fold. In addition, the binding result in experiment [4] is recorded as “no binding (tested: 94 nM (highest of the titration))”. Further, the “EC50 (nM), AML5 proliferation” value in experiment [5] is 0.037 nM.

B2: human FLT3-ligand (Δ5 amino acid) human IgG4 (S228P/F234A/L235A/M252Y/S254T/T256E) fusion protein (SEQ ID NO:14) (Fc fusion)
chain: TQDCSFQHSPISSDFAVKIRELSDYLLQDYPVTVASNLQDEELCGGLWRLVLAQRWMERLKTVAGSKMQGLLERVNTEIHFVTKCAFQPPPSCLRFVQTNISRLLQETSEQLVALKPWITRQNFSRCLELQCQPDSSTLPPPWSPRPLEATAESKYGPPCPPCPAPEAAGGPSVFLFPPKPKDTLYITREPEVTCVVVDVSQEDPEVQFNWYVDGVEVHNAKTKPREEQFNSTYRVVSVLTVLHQDWLNGKEYKCKVSNKGLPSSIEKTISKAKGQPREPQVYTLPPSQEEMTKNQVSLTCLVKGFYPSDIAVEWESNGQPENNYKTTPPVLDSDGSFFLYSRLTVDKSRWQEGNVFSCSVMHEALHNHYTQKSLSLSLGK
notes: also called FLT3L ECD (Δ C-term 5aa (PTAPQ)) - hG4 (S228P/F234A/L235A/M252Y/S254T/T256E)
Consider B2, for which the EC50 is 178 nM in the experiment with recombinant human FcRn [1] and 0.92 nM in experiment [3]. For the same molecule, the “fold increase in FcRn binding against SEQ ID NO:6” value with recombinant human FcRn [2] was 2 fold. Moreover, the binding result in experiment [4] is on record as “no binding (tested: 94 nM (highest of the titration))”. The “EC50 (nM), AML5 proliferation” value in experiment [5] is 0.046 nM.
